Test results reported in patent publication US5336488A, “Method of treating or preventing mastitis in animals with involuting mammary glands by administering recombinant cytokines” (American Cyanamid Company, priority 1992, dated 1994).

B1: recombinant bovine interleukin-2 (protein, UniProt P05016 21-155, looked up)
Interleukin-2: APTSSSTGNTMKEVKSLLLDLQLLLEKVKNPENLKLSRMHTFDFYVPKVNATELKHLKCLLEELKLLEEVLNLAPSKNLNPREIKDSMDNIKRIVLELQGSETRFTCEYDDATVNAVEFLNKWITFCQSIYSTMT
notes: recombinant bovine interleukin-2, obtained from IMMUNEX Corp. Seattle, WA
B2: recombinant bovine interleukin-1 (protein, UniProt P09428 114-266, looked up)
Interleukin-1 beta: APVQSIKCKLQDREQKSLVLASPCVLKALHLLSQEMNREVVFCMSFVQGEERDNKIPVALGIKDKNLYLSCVKKGDTPTLQLEEVDPKVYPKRNMEKRFVFYKTEIKNTVEFESVLYPNWYISTSQIEERPVFLGHFRGGQDITDFRMETLSP
notes: recombinant bovine interleukin-1, obtained from IMMUNEX Corp. Seattle, WA

Tests used:
[1] = test system: IL-2 dependant BT-2 T cell line; assay: Residual r-BoIL-2 bioactivity in dry cow gland secretions (BT-2 bioassay); type: in vivo, bovine
Experimental: FIGS. 4(A-B): Measurement of Residual r-BoIL-2 Bioactivity in Secretions from Dry Cow Glands Infused with r-BolL-2
Secretions from 4 quarters (4 different cows) are infused with 1 mg of r-BoIL-2 at drying-off (2 quarters) or not treated with r-BoIL-2 (2 quarters). Dry gland secretions are collected at time 0,72,144 and 240 hours after infusion. All samples shown are from the 72 hour time point and are diluted 1:50 and 1:200, and assayed for amount of biologically active r-BoIL-2 using the IL-2 dependant BT-2 T cell line, panel B. The BT-2 cell line is a bovine T cell line which requires IL-2 for growth. By measuring the degree of proliferation of this cell line, one directly measures the amount of biologically active IL-2 in a test media. Data is expressed as a mean ^3 H-thymidine incorporation +/- S.D. of triplicate samples of BT-2 cells for each of the individual numbered animals. […] A standard assay of various concentrations of r-BoIL-2 in 2% dry secretions is also shown in panel A as a positive control.
To specifically study the presence of cytokines after a single intramammary infusion into dry cows, […] from four different cows, are infused with 1 mg r-BoIL-2 at dry-off. […] Secretions from dry cow quarters treated with 1 mg of r-BoIL-2 are collected at 72, 144 and 240 hours after dry cow treatment. As with the milk, a 1:50 dilution of dry secretion samples is made and these solutions assayed by the bioassay using BT-2 and compared to r-BoIL-2 diluted in media.

[2] = Milk production in lactations immediately following dry cow therapy; type: in vivo, bovine (dairy cows); conditions: FIG. 6
Experimental: FIG. 6: Milk Production Early in Lactation Before and After Intramammary Infusion of r-BoIL-2 as a Dry Cow Therapy
Mean milk production in kilograms; (S.D.) is shown for 4 cows for the first six days after the initiation of lactation for the lactation immediately prior to treatment and immediately following treatment. Production after r-BoIL-2 treatment or for the same time period for the lactation prior to treatment is monitored. Total dose of r-BoIL-2 received by each treated cow is 2 mg. Three cows are completing their second lactation and one is completing its third lactation at the time of r-BoIL-2 therapy. Post-treatment production from initiation of the third or fourth lactation is compared to the production for the first 6 days after initiation of the second or third lactation (pre-treatment) respectively of the same animals .
The effects of r-BoIL-2 on possible milk production after dry-cow therapy are also evaluated. Milk production for three dairy cows for the first five days of the lactation cycle (second or third lactation) prior to r-BoIL-2 treatment is compared to the milk production for the first five days of the lactation cycle (third or fourth lactation) immediately following r-BoIL-2 treatment, FIG. 6.

[3] = test system: Bovine Mammary Gland; assay: Dose response of bovine mammary gland to intramammary infusion: somatic cell influx into milk; type: in vivo, bovine (Holstein dairy cattle); conditions: for infiltration of somatic cells into the milk: lactating cattle, FIG. 1; for minimal effective dose: somatic cell influx
Experimental: FIG. 1: Dose Response of Bovine Mammary Gland to Intramammary Infusion of Recombinant Cytokines
Five fold serial dilutions of r-BolL-1 (recombinant bovine interleukin-1) from 312.5 μg to […]: r-BoIL-2 (recombinant bovine interleukin-2) from 40 mg to 0.1 mg: and r-BoGM-CSF (recombinant bovine granulocyte macrophage colony stimulating factor) from 0.2 mg to […] are administered at time 0 into 3-4 mammary glands from normal lactating Holstein dairy cattle. A total of 54 mammary gland quarters, 3-4 per group, are infused through the teat canal with various concentrations of recombinant bovine cytokines after the morning milking. Milk samples are collected and the number of viable somatic cells counted on a Coulter® ZM with a C256 Channelyzer. The data is expressed as the somatic cell count per ml of milk
These doses are guidelines for quantitative induction of somatic cells, but significant beneficial qualitative changes can be induced with lower doses. The specific biological activity for r-BoIL-1 as a chemoattractant is approximately 10,000 fold greater than r-BoIL-2, although the in vitro specific bioactivities are equivalent. Active IL-2 inhibition or decreased biostability in milk might explain this discrepancy. The peak number of cells after r-BoIL-1 infusion with a maximal tolerable dose is 4-5 fold greater than r-BoIL-2. The kinetics of PMN migration into the mammary gland is such that migration occurs 8- 24 hours sooner for r-BoIL-1 infusions […] the BolL-2 infusion depending upon the dose. The dominant cell type after r-BoIL-1 or r-BoIL-2 infusion is PMNs.

[4] = Milk production in lactating glands after intramammary infusion or intramuscular injection; type: in vivo, bovine (lactating dairy cows); conditions: for decrease of milk production: FIG. 3A
Experimental: FIGS. 3(A-I): Milk Production After Intramammary Infusion or Intramuscular Injection of r-BoIL-2 into Lactating Dairy Cows
Mean milk production in kilograms +/- Standard Error is recorded for 8 lactating dairy cows after intramammary infusion of r-BoIL-2 or no treatment. Data is shown as a percentage of the average milk production (Standard Deviation) compared to the first five days prior to Treatment (mean for 100% production level ). Production after r-BoIL-2 intramammary infusion with total dosing amounting to 4.5 mg or 13.5 mg in quarters infected with S. aureaus is compared to infected, untreated cows for a 6 day time period, panel A. Similarly, production is also followed in 7 lactating injections of r-BoIL-2 at 2.5 μg/kg/day for 5 days and compared to 3 normal PBS injected controls, panel B. All cows are in mid to late stages of their second or third lactation at the time of r-BoIL-2 therapy. All effects on milk production are transient, returning to pre-treatment levels within 96 hours after cessation of treatment.
In vivo measurement of daily milk production is also monitored for both intramammary infusions and intramuscular injection. Cows are milked morning and evening and the milk weighed and recorded in total kilograms per day. The total dose of IL-2 administered per cow ranges from 2 to 96 mg. Single or multiple intramammary infusions of IL-2 have variable effects on individual animal's milk production based upon the total dose of r-BoIL-2 administered per day, FIG. 3 A (INTRAMAMMARY). Production decreases as much as 30-40% by the third infusion in the high dose animals (13.5 mg), whereas only a 12% decrease is observed at the 4.5 mg dose (not statistically different from time 0 production or control animals). […] This induction would be of great significance to assist in the morphological changes required during early lactation and serves to accelerate the protective mechanisms.

Row | Molecule | detectable r-BoIL-2 bioactivity in dry gland secretions ([1]; 1 mg intramammary at dry-off, 72 hours after infusion, 1:50 dilution) | residual r-BoIL-2 bioactivity in secretions ([1]; 1 mg intramammary at drying-off, 72, 144, 240 hours) | biologically active IL-2 in dry cow secretions ([1]; after 3 days, FIG. 4) | improvement in milk production at the following lactation ([2]; first five days of lactation vs prior lactation) | inhibition of milk production at the following lactation ([2]; first five days of lactation) | dominant cell type after infusion ([3]; intramammary infusion) | maximal tolerable dose ([3]; intramammary infusion) | infiltration of somatic cells into the milk ([3]; intramammary infusion) | minimal effective dose ([3]; intramammary infusion) | time to return of milk production to pre-treatment levels after cessation of treatment ([4]; intramammary or intramuscular r-BoIL-2) | decrease of milk production ([4]; intramammary, 4.5 mg, not statistically different from time 0 or control) | decrease of milk production ([4]; intramammary, 13.5 mg, by the third infusion) | effect on milk production ([4]; intramammary, total dose less than 4.5 mg) | PMN migration into the mammary gland occurs sooner than with BoIL-2 infusion ([3]; depending upon the dose) | specific biological activity as a chemoattractant, greater than r-BoIL-2 ([3]; intramammary infusion, relative to r-BoIL-2) | peak number of cells after infusion, greater than r-BoIL-2 ([3]; maximal tolerable dose, relative to r-BoIL-2)
1 | B1 | less than 0.024 .eta.g/ml | No r-BoIL-2 activity could be detected at any time point | no biologically active IL-2 is detected after 3 days | 80% | No inhibition of milk production | PMNs | 30 mg | induce an infiltration of somatic cells into the milk in a dose related manner | 0.5 mg | ≤ 96 h | 12% | 30-40% | No statistically significant effect on milk production |  |  | 
2 | B2 |  |  |  |  |  | PMNs | 1000 mg | induce an infiltration of somatic cells into the milk in a dose related manner | 0.5 mg |  |  |  |  | 8 to 24 h | approximately 10,000 fold | 4-5 fold
